Experiments:
[1] = tested on: PC-3 cells; assay: MTT cell viability assay; assay type: cell-based, human; conditions: 0-50 μg/ml
Procedure: (§1) Cell viability was measured by MTT assay, as described above.
(§2) The effects of Tumstatin-44-131 and Tum-5-125-C-A on cell viability of C-PAE cells were not seen in control PC-3 and DU-145 cells, as shown in FIGS. 52C and 52D. […] The activity of Tumstatin-44-131 is therefore specific to endothelial cells.

[2] = tested on: C-PAE cells; assay: Cell cycle analysis (propidium iodide, flow cytometry); assay type: cell-based, bovine
Procedure: To further evaluate the mechanism of T3 peptide on endothelial cell proliferation, the effect of T3 peptide on cell cycle progression was analyzed. In the growth arrested and contact inhibited cells (0 hour), 4.1% of cells were in S phase. […] This was true even at a maximal dosage of 100 μg/ml. The effect of the T3 peptide was dose-dependent, however, with the percentage of cells in S phase at 21.4% at 10 μg/ml, and 20.5% at 25 μg/ml. The percentage of cells in G0/G1 phase was 88.3% at 0 hour, 53.4% for the bFGF control, and 57.6%, 57.6% and 71.0% for treatments with T1, T6 and T3 peptide, respectively. […] Apoptotic Activity: Peptides T2, T3, T4, T5 and T6 (10 μg/ml concentration) were tested for their effect of viability of C-PAE cells using the MTT assay, as described in Examples 32 and 36 above. The results are shown in FIG. 43D, which is a histogram showing cell viability as measured at OD595 (y-axis), and treatments with the synthetic peptides (x-axis). […] TNF-α (100 ng/ml) was used to serve as a positive control in inducing endothelial cell apoptosis.
The effect of Tumstatin-44-131 and Tum-5-125-C-A on the cell cycle were assayed similarly to Example 4 above. Briefly, C-PAE cells were growth arrested by contact inhibition for 48 hours. The cells, at 10^5 cells per well, were then harvested and plated into a 12-well plate coated with fibronectin in 5% FCS and either recombinant Tumstatin-44-131 or Tum-5-125-C-A. After 21 hours, the cells were harvested and fixed in 70% ice-cold ethanol. The fixed cells were rehydrated a room temperature for 30 minutes in PBS containing 2% FCS and 0.1% Tween-20, centrifuged and resuspended in 0.5 ml of the same buffer. RNase (5 μg/ml) digestion was done at 37° C. for one hour, followed by staining with propidium iodide (5 μg/ml). The cells were then counted using an EPICS XL-MCL flow cytometer (Beckman-Coulter Instruments, Fullerton, Calif., USA).

[3] = tested on: PC-3 tumors; assay: PC-3 xenograft in athymic nude NCRNU mice (Example 46); assay type: in vivo; conditions: 1 mg/kg i.p. b.i.d., 20 days
Procedure: Tumstatin-44-131 was also tested for its ability to suppress tumor growth. Male athymic nude NCRNU mice, of 5-6 weeks of age and about 25 g, were implanted with […] approximately 2×10^6 PC-3 (prostate cancer carcinoma) cells into the dorsal subcutis. […] The tumors were allowed to grow to about 50 mm^3, and animals were then pair-matched into groups of 6 mice. Initial doses of protein or vehicle (PBS, control) were given on the day of pair-matching (Day 1). Tumstatin-44-131, Tum-5-125-C-A, or human endostatin in sterile PBS was intraperitoneally injected daily b.i.d. at doses ranging from 1 to 20 mg/kg for 20 days. Control animals received injection of PBS vehicle. In one treatment, continuous subcutaneous delivery of Tumstatin-44-131 was done using surgically implanted Alzet mini-pumps. The mice were weighed twice weekly, and tumor measurements were taken, starting on Day 1. Estimated mean tumor volumes were calculated, and at Day 21, the mice were weighed, sacrificed, and their tumors excised and examined by light microscopy and CD31 immunostaining. The mean treated tumor weight was divided by the mean control tumor weight was subtracted from one, and expressed as a percentage to give the tumor growth inhibition for each group.

[4] = tested on: DU-145 cells; assay: MTT cell viability assay; assay type: cell-based; conditions: 0-50 μg/ml
Procedure: as §1, §2

[5] = tested on: Goodpasture autoantibody; assay: Reactivity with Goodpasture autoantibody (western blotting); assay type: binding, human
Excerpt: Goodpasture syndrome is an autoimmune disease characterized by pulmonary hemorrhage and/or rapidly progressing glomerulonephritis, which are caused by the disruption of glomerular and alveolar basement membranes through immune injury associated with autoantibody activity against α3(IV) NC1. Recently, the most probable disease-related pathogenic epitope was identified in the N-terminal portion (Kalluri, R. et al., 1996, J. Biol. Chem. 271:9062-8; Hellmark, T. et al., 1999, Kidney Int. 55:938-44), and was then further confined within the N-terminal 40 amino acids (Hellmark, T. et al., 1999, J. Biol. Chem. 274:25862-8; Netzer, K. O. et al., 1999, J. Biol. Chem. 274:11267-74). The N-terminal Tumstatin-44-131 consists of residues 44-131 of Tumstatin, which is outside of the Goodpasture autoepitope. To further confirm that Tumstatin-44-131 would not be detected by Goodpasture autoantibody, antisera from patients with Goodpasture was used for western blotting.

B1: Tum-5-125-C-A: Tumstatin-44-131 with cysteine at position 125 mutated to alanine (SEQ ID NO:34) (protein)
chain: FSFLFVQGNQRAHGQDLGTLGSCLQRFTTMPFLFCNVNDVCNFASRNDYSYWLSTPALMPMNMAPITGRALEPYISRCTVAEGPAIAI
modifications: Tumstatin-5-125-C-A (amino acids 45-132 of SEQ ID NO10; alanine has been substituted for the cysteine residue at position 125 of the full-length Tumstatin molecule)
- effect on viability of PC-3 cells [1]: not seen
- cell cycle arrest compared with Tumstatin-44-131 [2]: equivalent to treatment with Tumstatin-44-131
- tumor growth inhibition [3]: 92.0%
- effect on viability of DU-145 cells [4]: not seen
- detection by antisera / autoantibodies from patients with Goodpasture syndrome [5]: failed to detect

Reference: patent US7387779B2, “Anti-angiogenic proteins and fragments and methods of use thereof” (Beth Israel Deaconess Medical Center, priority 1998, dated 2008)
